{"source": "patent CN107840891A", "binders": {"B1": {"name": "2G8 (scFv, V domains shown)", "VH": "QVQLQQPGAELVKPGASMKLSCKASGTQFANYRMHWVKQRPGQGLEWIGMIHPNSDNTIYYEKFKSKATLTVDKSSSTAYMQLSSLTSEDSAVYYCAIIITPVVPKFDYWGQGTTLTVSS", "VL": "DIVMTQSHQFMSTSVGDRVSVTCKASHDVGTSVAWYQQKPGQSPKLLIYWASTRHTGVPDRFTGSGSGTDFTLTISNVQSEDLADYFCQQYSSYPLTFGAGTKLELK"}, "B2": {"name": "2D9 (scFv, V domains shown)", "VH": "QVQLQQPGAELVKPGASMKLSCKASGYTFTSYWMHWVKQRPGQGLEWIGMIHAQSDNTIYYEKFKSKATLTVDKSSSTAYMQLSSLTSEDSAVYYCAIIITPVVPKFDYWGQGTTLTVSS", "VL": "DIVMTQSHQFMSTSVGDRVSVTCKASHDVGTSVAWYQQKPGQSPKLLIYWASTRHTGVPDRFTGSGSGTDFTLTISNVQSEDLADYFCQQYSSYPLTFGAGTKLELK"}, "B3": {"name": "3F9 (scFv, V domains shown)", "VH": "QVQLQQPGAELVKPGASMKLSCKASGYTFTSYWMHWVKQRPGQGLEWIGMIHPNSQNTIYYEKFKSKATLTVDKSSSTAYMQLSSLTSEDSAVYYCAIIITPVVPKFDYWGQGTTLTVSS", "VL": "DIVMTQSHQFMSTSVGDRVSVTCKASHDVGTSVAWYQQKPGQSPKLLIYWASTRHTGVPDRFTGSGSGTDFTLTISNVQSEDLADYFCQQYSSYPLTFGAGTKLELK"}, "B4": {"name": "4D7 (scFv, V domains shown)", "VH": "QVQLQQPGAELVKPGASMKLSCKASGYTFTSYWMHWVKQRPGQGLEWIGMIHPNSDNTIYYEKFKSKATLTVDKSSSTAYMQLSSLTSEDSAVYYCAITISPVVPKFDYWGQGTTLTVSS", "VL": "DIVMTQSHQFMSTSVGDRVSVTCKASHDVGTSVAWYQQKPGQSPKLLIYWASTRHTGVPDRFTGSGSGTDFTLTISNVQSEDLADYFCQQYSSYPLTFGAGTKLELK"}, "B5": {"name": "4C11 (scFv, V domains shown)", "VH": "QVQLQQPGAELVKPGASMKLSCKASGYTFTSYWMHWVKQRPGQGLEWIGMIHLNSAQTIYYEKFKSKATLTVDKSSSTAYMQLSSLTSEDSAVYYCAIIITPVVPKFDYWGQGTTLTVSS", "VL": "DIVMTQSHQFMSTSVGDRVSVTCKASHDVGTSVAWYQQKPGQSPKLLIYWASTRHTGVPDRFTGSGSGTDFTLTISNVQSEDLADYFCQQYSSYPLTFGAGTKLELK"}, "B6": {"name": "7E10 (scFv, V domains shown)", "VH": "QVQLQQPGAELVKPGASMKLSCKASGYTFTSYWMHWVKQRPGQGLEWIGMIHPNSDNTIYYEKFKSKATLTVDKSSSTAYMQLSSLTSEDSAVYYCAIIITPVVPKFDYWGQGTTLTVSS", "VL": "DIVMTQSHQFMSTSVGDRVSVTCKASHDVGTSVAWYQQKPGQSPKLLIYNASSRGGGVPDRFTGSGSGTDFTLTISNVQSEDLADYFCQQYSSYPLTFGAGTKLELK"}, "B7": {"name": "2F9 (scFv, V domains shown)", "VH": "QVQLQQPGAELVKPGASMKLSCKASGYTFTSYWMHWVKQRPGQGLEWIGGIEQNSSETIYYEKFKSKATLTVDKSSSTAYMQLSSLTSEDSAVYYCAIIITPVVPKFDYWGQGTTLTVSS", "VL": "DIVMTQSHQFMSTSVGDRVSVTCKASHDVGTSVAWYQQKPGQSPKLLIYWASTRHTGVPDRFTGSGSGTDFTLTISNVQSEDLADYFCQQYSSYPLTFGAGTKLELK"}, "B8": {"name": "9F5 (scFv, V domains shown)", "VH": "QVQLQQPGAELVKPGASMKLSCKASGYTFTSYWMHWVKQRPGQGLEWIGMIHPNSDNTIYYEKFKSKATLTVDKSSSTAYMQLSSLTSEDSAVYYCAIIITPVVPKFDYWGQGTTLTVSS", "VL": "DIVMTQSHQFMSTSVGDRVSVTCKASHDVGTSVAWYQQKPGQSPKLLIYQASKKEKGVPDRFTGSGSGTDFTLTISNVQSEDLADYFCQQYSSYPLTFGAGTKLELK"}, "B9": {"name": "3E12 (scFv, V domains shown)", "VH": "QVQLQQPGAELVKPGASMKLSCKASGYTFTSYWMHWVKQRPGQGLEWIGMINLVSSRTIYYEKFKSKATLTVDKSSSTAYMQLSSLTSEDSAVYYCAIIITPVVPKFDYWGQGTTLTVSS", "VL": "DIVMTQSHQFMSTSVGDRVSVTCKASHDVGTSVAWYQQKPGQSPKLLIYWASTRHTGVPDRFTGSGSGTDFTLTISNVQSEDLADYFCQQYSSYPLTFGAGTKLELK"}, "B10": {"name": "MN单链抗体 (scFv MN, wild type) (scFv, V domains shown)", "VH": "QVQLQQPGAELVKPGASMKLSCKASGYTFTSYWMHWVKQRPGQGLEWIGMIHPNSDNTIYYEKFKSKATLTVDKSSSTAYMQLSSLTSEDSAVYYCAIIITPVVPKFDYWGQGTTLTVSS", "VL": "DIVMTQSHQFMSTSVGDRVSVTCKASHDVGTSVAWYQQKPGQSPKLLIYWASTRHTGVPDRFTGSGSGTDFTLTISNVQSEDLADYFCQQYSSYPLTFGAGTKLELK"}, "B11": {"name": "4A12 (scFv, V domains shown)", "VH": "QVQLQQPGAELVKPGASMKLSCKASGYTFTSYWMHWVKQRPGQGLEWIGMIHPNSDNTIYYEKFKSKATLTVDKSSSTAYMQLSSLTSEDSAVYYCAIVILPFLPKFDYWGQGTTLTVSS", "VL": "DIVMTQSHQFMSTSVGDRVSVTCKASHDVGTSVAWYQQKPGQSPKLLIYWASTRHTGVPDRFTGSGSGTDFTLTISNVQSEDLADYFCQQYSSYPLTFGAGTKLELK"}, "B12": {"name": "7D5 (scFv, V domains shown)", "VH": "QVQLQQPGAELVKPGASMKLSCKASGYTFTSYWMHWVKQRPGQGLEWIGMIHPNSDNTIYYEKFKSKATLTVDKSSSTAYMQLSSLTSEDSAVYYCAIIITPVVPKFDYWGQGTTLTVSS", "VL": "DIVMTQSHQFMSTSVGDRVSVTCKASHDVGTSVAWYQQKPGQSPKLLIYKASNNKKGVPDRFTGSGSGTDFTLTISNVQSEDLADYFCQQYSSYPLTFGAGTKLELK"}, "B13": {"name": "5F7 (scFv, V domains shown)", "VH": "QVQLQQPGAELVKPGASMKLSCKASGYTFTSYWMHWVKQRPGQGLEWIGMIHPNSDNTIYYEKFKSKATLTVDKSSSTAYMQLSSLTSEDSAVYYCAIIITPVVPKFDYWGQGTTLTVSS", "VL": "DIVMTQSHQFMSTSVGDRVSVTCKASHDVGTSVAWYQQKPGQSPKLLIYWASTRHTGVPDRFTGSGSGTDFTLTISNVQSEDLADYFCQQYASYPLSFGAGTKLELK"}, "B14": {"name": "8C9 (scFv, V domains shown)", "VH": "QVQLQQPGAELVKPGASMKLSCKASGYTFTSYWMHWVKQRPGQGLEWIGMIHPNSDNTIYYEKFKSKATLTVDKSSSTAYMQLSSLTSEDSAVYYCAIIITPVVPKFDYWGQGTTLTVSS", "VL": "DIVMTQSHQFMSTSVGDRVSVTCMASHDVGTSVAWYQQKPGQSPKLLIYWASTRHTGVPDRFTGSGSGTDFTLTISNVQSEDLADYFCQQYSSYPLTFGAGTKLELK"}}, "key": {"[1]": {"target": "MSLN抗原 (Mesothelin, MSLN-Biotin) (human) (UniProt Q13421)", "sequence (Q13421 296-606 limits assumed)": "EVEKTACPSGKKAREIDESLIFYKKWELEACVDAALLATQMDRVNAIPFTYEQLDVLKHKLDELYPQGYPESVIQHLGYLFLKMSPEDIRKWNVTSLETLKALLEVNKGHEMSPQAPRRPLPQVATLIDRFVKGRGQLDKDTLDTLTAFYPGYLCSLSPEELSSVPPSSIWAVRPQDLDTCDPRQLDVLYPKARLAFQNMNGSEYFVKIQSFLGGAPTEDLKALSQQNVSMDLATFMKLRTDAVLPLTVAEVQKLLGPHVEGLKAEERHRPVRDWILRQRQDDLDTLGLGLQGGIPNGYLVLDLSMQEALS", "assay": "BLI (Octet RED96), MSLN-Biotin on AR2G sensor, TG1 periplasmic scFv as analyte"}, "[2]": {"target": "MSLN抗原 (Mesothelin, MSLN-Biotin) (human) (UniProt Q13421)", "assay": "BLI (Octet RED96), MSLN-Biotin on AR2G sensor, TG1 periplasmic scFv as analyte (表2.1)"}, "[3]": {"target": "MSLN抗原 (Mesothelin, MSLN-Biotin) (human) (UniProt Q13421)", "assay": "BLI (Octet RED96), MSLN-Biotin on AR2G sensor, TG1 periplasmic scFv as analyte (表2.2)"}, "[4]": {"target": "MSLN抗原 (Mesothelin, MSLN-Biotin) (human) (UniProt Q13421)", "assay": "BLI (Octet RED96), MSLN-Biotin on AR2G sensor, TG1 periplasmic scFv as analyte (表2.4)"}}, "data": [{"binder": "B1", "values": [{"measurement": "koff", "setting": "[1]", "value": 0.00111, "unit": "s⁻¹"}, {"measurement": "响应", "setting": "[1]", "value": 1.11}]}, {"binder": "B2", "values": [{"measurement": "koff", "setting": "[1]", "value": 0.000217, "unit": "s⁻¹"}, {"measurement": "响应", "setting": "[1]", "value": 1.25}]}, {"binder": "B3", "values": [{"measurement": "koff", "setting": "[1]", "value": 0.000164, "unit": "s⁻¹"}, {"measurement": "响应", "setting": "[1]", "value": 1.38}]}, {"binder": "B4", "values": [{"measurement": "koff", "setting": "[1]", "value": 0.000321, "unit": "s⁻¹"}, {"measurement": "响应", "setting": "[1]", "value": 0.96}]}, {"binder": "B5", "values": [{"measurement": "koff", "setting": "[1]", "value": 0.000133, "unit": "s⁻¹"}, {"measurement": "响应", "setting": "[1]", "value": 1.16}]}, {"binder": "B6", "values": [{"measurement": "koff", "setting": "[1]", "value": 0.000401, "unit": "s⁻¹"}, {"measurement": "响应", "setting": "[1]", "value": 1.02}]}, {"binder": "B7", "values": [{"measurement": "koff", "setting": "[1]", "value": 0.00166, "unit": "s⁻¹"}, {"measurement": "响应", "setting": "[1]", "value": 0.13}]}, {"binder": "B8", "values": [{"measurement": "koff", "setting": "[1]", "value": 0.000294, "unit": "s⁻¹"}, {"measurement": "响应", "setting": "[1]", "value": 0.97}]}, {"binder": "B9", "values": [{"measurement": "koff", "setting": "[1]", "value": "9.73e-05", "unit": "s⁻¹"}, {"measurement": "响应", "setting": "[1]", "value": 1.04}]}, {"binder": "B10", "values": [{"measurement": "koff", "setting": "[2]", "value": 0.000164, "unit": "s⁻¹"}, {"measurement": "响应", "setting": "[2]", "value": 0.37}, {"measurement": "koff", "setting": "[3]", "value": 0.000221, "unit": "s⁻¹"}, {"measurement": "响应", "setting": "[3]", "value": 0.38}, {"measurement": "koff", "setting": "[4]", "value": 0.000188, "unit": "s⁻¹"}, {"measurement": "响应", "setting": "[4]", "value": 0.37}]}, {"binder": "B11", "values": [{"measurement": "koff", "setting": "[1]", "value": 0.0001, "unit": "s⁻¹"}, {"measurement": "响应", "setting": "[1]", "value": 0.91}]}, {"binder": "B12", "values": [{"measurement": "koff", "setting": "[1]", "value": 0.000395, "unit": "s⁻¹"}, {"measurement": "响应", "setting": "[1]", "value": 0.94}]}, {"binder": "B13", "values": [{"measurement": "koff", "setting": "[1]", "value": 0.000613, "unit": "s⁻¹"}, {"measurement": "响应", "setting": "[1]", "value": 0.73}]}, {"binder": "B14", "values": [{"measurement": "koff", "setting": "[1]", "value": 0.000356, "unit": "s⁻¹"}, {"measurement": "响应", "setting": "[1]", "value": 0.93}]}]}
